Assay results taken from patent publication US20060211022A1.

Biological target: NGFR/EPOR hybrid receptor NECD (NGFR/EPOR chimera D) on 32D/NECDsc-14 cells (human; mouse)
Test: cell-based or functional assay

Sequence of NGFR/EPOR hybrid receptor NECD (NGFR/EPOR chimera D) on 32D/NECDsc-14 cells (human; mouse) (chain, as listed by the source mutant limits assumed): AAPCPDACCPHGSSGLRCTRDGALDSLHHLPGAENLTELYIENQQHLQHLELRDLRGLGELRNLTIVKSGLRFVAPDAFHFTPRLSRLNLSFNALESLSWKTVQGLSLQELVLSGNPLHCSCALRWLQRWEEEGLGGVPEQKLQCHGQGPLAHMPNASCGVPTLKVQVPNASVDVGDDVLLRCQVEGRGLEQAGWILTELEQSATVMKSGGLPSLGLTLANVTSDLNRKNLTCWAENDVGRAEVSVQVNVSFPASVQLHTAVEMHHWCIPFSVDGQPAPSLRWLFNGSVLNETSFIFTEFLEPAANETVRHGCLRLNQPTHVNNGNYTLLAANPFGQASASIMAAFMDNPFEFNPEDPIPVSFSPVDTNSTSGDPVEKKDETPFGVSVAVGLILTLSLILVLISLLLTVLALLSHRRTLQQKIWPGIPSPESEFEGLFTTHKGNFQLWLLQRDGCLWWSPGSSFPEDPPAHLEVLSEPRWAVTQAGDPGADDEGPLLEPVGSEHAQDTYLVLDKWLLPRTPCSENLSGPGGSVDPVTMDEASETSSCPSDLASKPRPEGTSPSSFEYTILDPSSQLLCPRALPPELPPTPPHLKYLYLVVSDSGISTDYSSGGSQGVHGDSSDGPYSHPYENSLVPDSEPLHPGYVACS
Sequence of NGF (P01138 122-241): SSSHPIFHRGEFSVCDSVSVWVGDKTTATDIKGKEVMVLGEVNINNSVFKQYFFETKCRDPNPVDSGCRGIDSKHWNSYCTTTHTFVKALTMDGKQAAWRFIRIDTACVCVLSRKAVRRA

## NGF (ligand)
  NGF dose response in serum matrix, 0.02 ng/mL NGF, 1% human serum: 947
  NGF dose response in serum matrix, 0.02 ng/mL NGF, 2% rat serum: 1190
  NGF dose response in serum matrix, 0.02 ng/mL NGF, 5% cyno serum: 2180
  NGF dose response in serum matrix, 0.02 ng/mL NGF, no serum: 595
  NGF dose response in serum matrix, 0.07 ng/mL NGF, 1% human serum: 1480
  NGF dose response in serum matrix, 0.07 ng/mL NGF, 2% rat serum: 3520
  NGF dose response in serum matrix, 0.07 ng/mL NGF, 5% cyno serum: 5760
  NGF dose response in serum matrix, 0.07 ng/mL NGF, no serum: 1390
  NGF dose response in serum matrix, 0.21 ng/mL NGF, 1% human serum: 5830
  NGF dose response in serum matrix, 0.21 ng/mL NGF, 2% rat serum: 12000
  NGF dose response in serum matrix, 0.21 ng/mL NGF, 5% cyno serum: 15800
  NGF dose response in serum matrix, 0.21 ng/mL NGF, no serum: 5420
  NGF dose response in serum matrix, 0.62 ng/mL NGF, 1% human serum: 13400
  NGF dose response in serum matrix, 0.62 ng/mL NGF, 2% rat serum: 29400
  NGF dose response in serum matrix, 0.62 ng/mL NGF, 5% cyno serum: 32500
  NGF dose response in serum matrix, 0.62 ng/mL NGF, no serum: 17100
  NGF dose response in serum matrix, 1.85 ng/mL NGF, 1% human serum: 19500
  NGF dose response in serum matrix, 1.85 ng/mL NGF, 2% rat serum: 37700
  NGF dose response in serum matrix, 1.85 ng/mL NGF, 5% cyno serum: 43100
  NGF dose response in serum matrix, 1.85 ng/mL NGF, no serum: 27400
  NGF dose response in serum matrix, 5.56 ng/mL NGF, 1% human serum: 22200
  NGF dose response in serum matrix, 5.56 ng/mL NGF, 2% rat serum: 43400
  NGF dose response in serum matrix, 5.56 ng/mL NGF, 5% cyno serum: 52200
  NGF dose response in serum matrix, 5.56 ng/mL NGF, no serum: 35200
  NGF dose response in serum matrix, 16.67 ng/mL NGF, 1% human serum: 24600
  NGF dose response in serum matrix, 16.67 ng/mL NGF, 2% rat serum: 42400
  NGF dose response in serum matrix, 16.67 ng/mL NGF, 5% cyno serum: 51800
  NGF dose response in serum matrix, 16.67 ng/mL NGF, no serum: 39700
  NGF dose response in serum matrix, 50.00 ng/mL NGF, 1% human serum: 19700
  NGF dose response in serum matrix, 50.00 ng/mL NGF, 2% rat serum: 46900
  NGF dose response in serum matrix, 50.00 ng/mL NGF, 5% cyno serum: 56400
  NGF dose response in serum matrix, 50.00 ng/mL NGF, no serum: 41000
  NGF dose response in serum matrix, 150.00 ng/mL NGF, 1% human serum: 18600
  NGF dose response in serum matrix, 150.00 ng/mL NGF, 2% rat serum: 49500
  NGF dose response in serum matrix, 150.00 ng/mL NGF, 5% cyno serum: 62100
  NGF dose response in serum matrix, 150.00 ng/mL NGF, no serum: 44100
  [3H]-thymidine counts, NECDsc-14 NGF-dependent, 0.02 ng/ml: 1960 counts
  [3H]-thymidine counts, NECDsc-14 NGF-dependent, 0.07 ng/ml: 4690 counts
  [3H]-thymidine counts, NECDsc-14 NGF-dependent, 0.21 ng/ml: 8030 counts
  [3H]-thymidine counts, NECDsc-14 NGF-dependent, 0.62 ng/ml: 16800 counts
  [3H]-thymidine counts, NECDsc-14 NGF-dependent, 1.85 ng/ml: 22400 counts
  [3H]-thymidine counts, NECDsc-14 NGF-dependent, 5.56 ng/ml: 24200 counts
  [3H]-thymidine counts, NECDsc-14 NGF-dependent, 16.67 ng/ml: 22900 counts
  [3H]-thymidine counts, NECDsc-14 NGF-dependent, 50.00 ng/ml: 21600 counts
  [3H]-thymidine counts, NECDsc-14 NGF-dependent, 150.00 ng/ml: 20900 counts
